Measured values taken from PMC3467263, “FXR Controls the Tumor Suppressor NDRG2 and FXR Agonists Reduce Liver Tumor Growth and Metastasis in an Orthotopic Mouse Xenograft Model” (PLoS ONE, 2012).

Molecular target: T1, human FXR^aa187–472 fused to GST (human, UniProt Q96RI1-2 187-472)
T1 construct: Detected in the TR-FRET assay by europium-labelled anti-GST; also called human FXR-LBD; hFXR; source: purified
T1 sequence (looked up): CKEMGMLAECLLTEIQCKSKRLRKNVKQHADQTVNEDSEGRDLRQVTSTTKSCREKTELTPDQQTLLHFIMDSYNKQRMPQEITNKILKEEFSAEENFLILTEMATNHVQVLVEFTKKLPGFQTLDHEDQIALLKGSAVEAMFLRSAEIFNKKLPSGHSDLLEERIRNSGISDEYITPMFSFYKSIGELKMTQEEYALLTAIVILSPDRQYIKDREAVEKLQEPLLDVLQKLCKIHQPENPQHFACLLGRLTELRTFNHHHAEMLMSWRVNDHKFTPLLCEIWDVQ
Test: FRET or BRET; homogeneous TR-FRET: biotinylated SRC-1 peptide (0.4 µM), 200 ng streptavidin-allophycocyanin, 6 ng europium-labelled anti-GST and 2.5 ng GST-FXR-LBD in 25 µL of 20 mM Tris/HCl pH 7.5, 5 mM MgCl2, 60 mM KCl, 1 mM DTT, 0.9 g/L BSA; 60 min incubation; FXR agonist (GW4064, PX20606 or PX20350) titrated; duplicates
Details: both partners purified

binding result: binds
B1: biotinylated SRC-1 peptide b-[residues removed]-COOH (peptide)
peptide: CPSSHSSLTERHKILHRLLQEGSPS
HELM: PEPTIDE1{[O=C1N[C@H]2[C@H](CS[C@H]2CCCCC(=O)[*:2])N1].C.P.S.S.H.S.S.L.T.E.R.H.K.I.L.H.R.L.L.Q.E.G.S.P.S}$$$$V2.0
SMILES: CC[C@H](C)[C@H](NC(=O)[C@H](CCCCN)NC(=O)[C@H](Cc1c[nH]cn1)NC(=O)[C@H](CCCNC(=N)N)NC(=O)[C@H](CCC(=O)O)NC(=O)[C@@H](NC(=O)[C@H](CC(C)C)NC(=O)[C@H](CO)NC(=O)[C@H](CO)NC(=O)[C@H](Cc1c[nH]cn1)NC(=O)[C@H](CO)NC(=O)[C@H](CO)NC(=O)[C@@H]1CCCN1C(=O)[C@H](CS)NC(=O)CCCC[C@@H]1SC[C@@H]2NC(=O)N[C@@H]21)[C@@H](C)O)C(=O)N[C@@H](CC(C)C)C(=O)N[C@@H](Cc1c[nH]cn1)C(=O)N[C@@H](CCCNC(=N)N)C(=O)N[C@@H](CC(C)C)C(=O)N[C@@H](CC(C)C)C(=O)N[C@@H](CCC(N)=O)C(=O)N[C@@H](CCC(=O)O)C(=O)NCC(=O)N[C@@H](CO)C(=O)N1CCC[C@H]1C(=O)N[C@@H](CO)C(=O)O
notes: Coupled to streptavidin-allophycocyanin through its biotin in the assay
